T1: brevican (BCAN) (human, UniProt Q96GW7 23-911, limits assumed)
T1 construct: Control protein of the pull-down assay
T1 sequence (looked up): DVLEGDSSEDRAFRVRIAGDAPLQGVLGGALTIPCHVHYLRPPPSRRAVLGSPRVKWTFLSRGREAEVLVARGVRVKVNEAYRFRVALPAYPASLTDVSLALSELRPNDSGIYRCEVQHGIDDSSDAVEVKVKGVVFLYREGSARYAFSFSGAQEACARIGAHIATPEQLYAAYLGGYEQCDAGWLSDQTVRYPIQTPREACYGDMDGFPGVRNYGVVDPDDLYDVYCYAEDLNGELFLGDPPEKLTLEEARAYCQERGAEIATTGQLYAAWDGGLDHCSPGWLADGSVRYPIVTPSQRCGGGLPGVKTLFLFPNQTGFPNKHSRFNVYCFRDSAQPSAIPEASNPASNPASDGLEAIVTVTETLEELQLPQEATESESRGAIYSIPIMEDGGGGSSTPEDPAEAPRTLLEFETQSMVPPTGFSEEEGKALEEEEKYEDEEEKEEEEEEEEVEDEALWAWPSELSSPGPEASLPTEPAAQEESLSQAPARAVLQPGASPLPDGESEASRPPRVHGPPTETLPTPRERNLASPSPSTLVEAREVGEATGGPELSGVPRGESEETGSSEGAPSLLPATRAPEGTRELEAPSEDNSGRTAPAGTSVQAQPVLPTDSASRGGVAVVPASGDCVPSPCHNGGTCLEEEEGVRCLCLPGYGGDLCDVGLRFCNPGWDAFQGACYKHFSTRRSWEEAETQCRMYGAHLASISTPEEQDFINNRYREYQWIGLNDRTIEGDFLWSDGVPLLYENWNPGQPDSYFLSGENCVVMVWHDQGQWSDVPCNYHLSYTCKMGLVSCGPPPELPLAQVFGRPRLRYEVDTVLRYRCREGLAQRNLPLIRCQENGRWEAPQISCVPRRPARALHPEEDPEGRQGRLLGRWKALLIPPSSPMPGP

B1: secreted protein acidic and rich in cysteine (SPARC) (other, human, UniProt P09486 18-303, looked up)
chain: APQQEALPDETEVVEETVAEVTEVSVGANPVQVEVGEFDDGAEETEEEVVAENPCQNHHCKHGKVCELDENNTPMCVCQDPTSCPAPIGEFEKVCSNDNKTFDSSCHFFATKCTLEGTKKGHKLHLDYIGPCKYIPPCLDSELTEFPLRMRDWLKNVLVTLYERDEDNNLLTEKQKLRVKKIHENEKRLEAGDHPVELLARDFEKNYNMYIFPVHWQFGQLDQHPIDGYLSHTELAPLRAPLIPMEHCTTRFFETCDLDNDKYIALDEWAGCFGIKQKDIDKDLVI
notes: Endogenous protein in SVZ hNPC conditioned media
B2: SPARC-like protein 1 (SPARCL1) (other, human, UniProt Q14515 17-664, looked up)
chain: IPTNARLLSDHSKPTAETVAPDNTAIPSLRAEAEENEKETAVSTEDDSHHKAEKSSVLKSKEESHEQSAEQGKSSSQELGLKDQEDSDGHLSVNLEYAPTEGTLDIKEDMSEPQEKKLSENTDFLAPGVSSFTDSNQQESITKREENQEQPRNYSHHQLNRSSKHSQGLRDQGNQEQDPNISNGEEEEEKEPGEVGTHNDNQERKTELPREHANSKQEEDNTQSDDILEESDQPTQVSKMQEDEFDQGNQEQEDNSNAEMEEENASNVNKHIQETEWQSQEGKTGLEAISNHKETEEKTVSEALLMEPTDDGNTTPRNHGVDDDGDDDGDDGGTDGPRHSASDDYFIPSQAFLEAERAQSIAYHLKIEEQREKVHENENIGTTEPGEHQEAKKAENSSNEEETSSEGNMRVHAVDSCMSFQCKRGHICKADQQGKPHCVCQDPVTCPPTKPLDQVCGTDNQTYASSCHLFATKCRLEGTKKGHQLQLDYFGACKSIPTCTDFEVIQFPLRMRDWLKNILMQLYEANSEHAGYLNEKQRNKVKKIYLDEKRLLAGDHPIDLLLRDFKKNYHMYVYPVHWQFSELDQHPMDRVLTHSELAPLRASLVPMEHCITRFFEECDPNKDKHITLKEWGHCFGIKEEDIDENLLF
notes: as for B1
B3: insulin-like growth factor binding protein 2 (IGFBP2) (other, human, UniProt P18065 36-325, looked up)
chain: AEVLFRCPPCTPERLAACGPPPVAPPAAVAAVAGGARMPCAELVREPGCGCCSVCARLEGEACGVYTPRCGQGLRCYPHPGSELPLQALVMGEGTCEKRRDAEYGASPEQVADNGDDHSEGGLVENHVDSTMNMLGGGGSAGRKPLKSGMKELAVFREKVTEQHRQMGKGGKHHLGLEEPKKLRPPPARTPCQQELDQVLERISTMRLPDERGPLEHLYSLHIPNCDKHGLYNLKQCKMSLNGQRGECWCVNPNTGKLIQGAPTIRGDPECHLFYNEQQEARGVHTQRMQ
notes: Control protein of the pull-down assay
B4: pleiotrophin (PTN) (ligand, human, UniProt P21246 33-168, looked up)
chain: GKKEKPEKKVKKSDCGEWQWSVCVPTSGDCGLGTREGTRTGAECKQTMKTQRCKIPCNWKKQFGAECKYQFQAWGECDLNTALKTRTGSLKRALHNAECQKTVTISKPCGKLTKPKPQAESKKKKKEGKKQEKMLD
notes: In the SEC and co-IP experiments this is the endogenous protein in SVZ hNPC conditioned media

Legend:
Experiment in all cases: co-immunoprecipitation from SVZ hNPC conditioned media, Western blot
[1] = biological target: B3
Description: (§1) To assess the specificity of the pull-down assay, three control proteins also present in SVZ hNPC CM: 78 kDa glucose-regulated protein (GRP78), insulin-like growth factor binding protein 2 (IGFBP2), and brevican (BCAN), were immunoprecipitated and were not found to copurify with any of the four proteins (FIG. 4D).
(§2) Immunoprecipitation reactions were conducted using the Pierce Crosslink Magnetic IP/Co-IP Kit (Thermo Scientific, Waltham, Mass.). 25 μL of Pierce Protein A/G Magnetic Beads per reaction were rinsed and incubated with 5 μg of antibody on a rotating platform for 15 minutes at room temperature. Antibodies used were: mouse anti-pleiotrophin (Santa Cruz Biotechnology, Santa Cruz, Calif.), rabbit anti-SPARC (Santa Cruz Biotechnology, Santa Cruz, Calif.), mouse anti-SPARCL1 (Santa Cruz Biotechnology, Santa Cruz, Calif.), rabbit anti-HSP90B (GeneTex, Irvine, Calif.), rabbit normal IgG (Santa Cruz Biotechnology, Santa Cruz, Calif.), and mouse normal IgG (Santa Cruz Biotechnology, Santa Cruz, Calif.). Beads were rinsed, and subsequently crosslinked to the antibodies using 0.02 mM DSS for 30 minutes at room temperature. Beads were washed and then incubated with a mixed combination of 250 μL neural precursor cell conditioned media and 250 μL IP lysis/wash buffer overnight at 4° C. The following morning, beads were washed, resuspended in Laemmli loading buffer, and boiled at 100° C. for 5 minutes to release the bound antigens from the beads. Samples were loaded immediately onto Western blots for analysis of the bound antigens, or stored at −20° C. for future analysis. For Western blot analysis, 2% of the input conditioned media was loaded, and 5% of the IP bound antigen samples were loaded.

brevican (BCAN) = biological target: T1, brevican (BCAN)
Description: as §1, §2

[2] = biological target: T2, heat shock protein 90B (HSP90B) (human, UniProt P14625 22-803, limits assumed)
T2 construct: Endogenous protein in SVZ hNPC conditioned media; 'HSP90B' alone is ambiguous
Description: as §1, §2

[3] = biological target: B2
Description: as §1, §2

[4] = biological target: T3, 78 kDa glucose-regulated protein (GRP78) (human, UniProt P11021 19-654)
T3 construct: Control protein of the pull-down assay
Description: as §1, §2

T2 sequence (P14625 22-803 limits assumed): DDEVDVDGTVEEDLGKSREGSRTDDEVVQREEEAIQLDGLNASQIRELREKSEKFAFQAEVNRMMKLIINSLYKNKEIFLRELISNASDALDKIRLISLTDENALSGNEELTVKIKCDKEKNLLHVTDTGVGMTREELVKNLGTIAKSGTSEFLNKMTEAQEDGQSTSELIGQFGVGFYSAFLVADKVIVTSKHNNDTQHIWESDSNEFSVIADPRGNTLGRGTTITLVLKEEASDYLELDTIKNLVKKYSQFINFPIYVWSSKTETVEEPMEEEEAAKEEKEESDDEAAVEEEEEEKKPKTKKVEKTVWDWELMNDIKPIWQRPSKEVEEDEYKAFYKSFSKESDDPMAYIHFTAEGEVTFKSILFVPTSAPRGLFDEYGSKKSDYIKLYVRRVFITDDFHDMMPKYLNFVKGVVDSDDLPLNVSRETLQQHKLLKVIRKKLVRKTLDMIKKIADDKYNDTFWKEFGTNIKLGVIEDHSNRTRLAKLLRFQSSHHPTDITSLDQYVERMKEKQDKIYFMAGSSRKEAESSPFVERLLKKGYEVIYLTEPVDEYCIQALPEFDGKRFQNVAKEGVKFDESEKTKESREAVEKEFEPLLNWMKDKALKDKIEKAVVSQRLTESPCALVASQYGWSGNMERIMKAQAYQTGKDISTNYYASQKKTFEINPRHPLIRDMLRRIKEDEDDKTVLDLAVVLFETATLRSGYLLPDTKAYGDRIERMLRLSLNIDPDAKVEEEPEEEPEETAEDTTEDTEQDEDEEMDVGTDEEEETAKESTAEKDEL
T3 sequence (P11021 19-654 limits assumed): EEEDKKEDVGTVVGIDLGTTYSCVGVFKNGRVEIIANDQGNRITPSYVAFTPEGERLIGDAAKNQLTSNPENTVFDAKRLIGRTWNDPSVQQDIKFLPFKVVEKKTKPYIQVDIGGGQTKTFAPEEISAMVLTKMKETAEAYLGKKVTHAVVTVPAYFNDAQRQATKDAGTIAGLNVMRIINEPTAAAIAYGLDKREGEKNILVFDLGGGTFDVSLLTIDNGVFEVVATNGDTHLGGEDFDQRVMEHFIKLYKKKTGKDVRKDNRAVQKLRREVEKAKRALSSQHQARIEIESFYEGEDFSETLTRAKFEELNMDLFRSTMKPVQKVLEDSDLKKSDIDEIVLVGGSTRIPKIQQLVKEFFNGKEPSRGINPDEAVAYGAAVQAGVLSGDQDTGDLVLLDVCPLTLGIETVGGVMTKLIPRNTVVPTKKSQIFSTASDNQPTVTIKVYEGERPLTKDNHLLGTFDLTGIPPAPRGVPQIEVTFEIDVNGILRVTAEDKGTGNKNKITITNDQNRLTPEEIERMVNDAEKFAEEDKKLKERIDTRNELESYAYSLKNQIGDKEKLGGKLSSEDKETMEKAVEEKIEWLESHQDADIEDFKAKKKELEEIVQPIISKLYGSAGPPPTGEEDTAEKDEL

B1: no binding [1]; no binding (brevican (BCAN)).

B2: no binding (brevican (BCAN)).

B3: no binding [2]; no binding [3].

B4: no binding [4]; no binding [1]; no binding (brevican (BCAN)).
